From PMC2841617, “A Combination of Independent Transcriptional Regulators Shapes Bacterial Virulence Gene Expression during Infection”

Assays:
[1] = tested on: CcpA (Streptococcus pyogenes (group A Streptococcus; strain of the clone not stated here)); assay: fluorescence polarization; conditions: CovR FP: 1 nM fluorescein DNA, 20 mM Tris pH 7.5, 50 mM NaCl, 2 mM DTT, 10 ug/mL poly(dI:dC), 25 C, CcpA FP as in ref 30 (buffer not given), with or without …
[2] = tested on: CcpA;HPr-Ser46-P (Streptococcus pyogenes (group A Streptococcus; strain of the clone not stated here);Streptococcus pyogenes (group A Streptococcus)); assay: fluorescence polarization; conditions: CovR FP: 1 nM fluorescein DNA, 20 mM Tris pH 7.5, 50 mM NaCl, 2 mM DTT, 10 ug/mL poly(dI:dC), 25 C, CcpA FP as in ref 30 (buffer not given), with or without …
[3] = target: CovR-P (phosphorylated) (Streptococcus pyogenes MGAS5005 (serotype M1)) (UniProt O87527); assay: fluorescence polarization; conditions: CovR FP: 1 nM fluorescein DNA, 20 mM Tris pH 7.5, 50 mM NaCl, 2 mM DTT, 10 ug/mL poly(dI:dC), 25 C; CcpA FP as in ref 30 (buffer not given), with or without …
[4] = target: CovR (unphosphorylated) (Streptococcus pyogenes MGAS5005 (serotype M1)) (UniProt O87527); assay: fluorescence polarization; conditions: CovR FP: 1 nM fluorescein DNA, 20 mM Tris pH 7.5, 50 mM NaCl, 2 mM DTT, 10 ug/mL poly(dI:dC), 25 C; CcpA FP as in ref 30 (buffer not given), with or without …
CovR (unphosphorylated) = CovR (unphosphorylated) (Streptococcus pyogenes MGAS5005 …, UniProt O87527 1-228); assay: fluorescence polarization; unphosphorylated; CovR FP: 1 nM fluorescein DNA, 20 mM Tris pH 7.5, 50 mM NaCl, 2 mM DTT, 10 ug/mL poly(dI:dC), 25 C; CcpA FP as in ref 30 (buffer not given), with or without 10; conditions: protein: recombinant, chain copies: 2, label: fluorescein

Molecule: amyA cre
- Kd (nM (unit implied)) ([1]; no HPr-Ser46-P): 160
- Kd (nM (unit implied)) ([2]; 10 uM HPr-Ser46-P): 32

Molecule: arcA cre
- Kd ([1]; no HPr-Ser46-P): 0.219 µM
- Kd ([2]; 10 uM HPr-Ser46-P): 0.018 µM

Molecule: hasA promoter probe
- Kd [3]: 0.64 µM
- Kd [4]: 2.2 µM

Molecule: nga/slo cre
- Kd [1]: 0.674 µM
- Kd [2]: 0.042 µM

Molecule: speB cre
- Kd [1]: 0.1 µM
- Kd [2]: 0.005 µM

Molecule: spyCEP cre
- Kd [1]: 0.257 µM
- Kd [2]: 0.033 µM

B1: amyA promoter probe (structured_DNA)
DNA: CAACCAAACTCTCATTAGAAACCCCCCTTTCTAATGAGAGTTTGGTTG
- Kd (CovR (unphosphorylated); hairpin (21 bp stem, C6 loop)): 0.245 µM

B2: arcA promoter probe (structured_DNA)
DNA: ACAAAAACCAATTAGAAAGACCCCCTCTTTCTAATTGGTTTTTGT
- Kd (CovR (unphosphorylated); hairpin (20 bp stem, C5 loop)): 0.637 µM
